The numbers were not newly measured in paper PMC3508151, which cites them from elsewhere.

Where two headings read alike, the source gives them in different places.

For data set [1], the target named is IL-13Rα1 (Homo sapiens) (UniProt P78552). Particulars: cited from earlier work.
For data set [2] the target is unchanged. Particulars: cited from earlier work. This is another data set of the same source.

Chain of IL-13Rα1 (Homo sapiens) (P78552 22-343): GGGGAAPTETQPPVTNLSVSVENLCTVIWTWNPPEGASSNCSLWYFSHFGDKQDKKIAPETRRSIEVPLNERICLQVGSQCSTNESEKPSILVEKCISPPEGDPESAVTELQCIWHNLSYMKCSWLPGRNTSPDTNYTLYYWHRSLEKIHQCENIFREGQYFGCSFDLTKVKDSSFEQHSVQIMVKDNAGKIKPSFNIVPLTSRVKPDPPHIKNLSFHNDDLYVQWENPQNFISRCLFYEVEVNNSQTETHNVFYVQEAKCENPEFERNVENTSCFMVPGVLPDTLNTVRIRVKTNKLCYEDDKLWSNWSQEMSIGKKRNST
Chain of IL-13 (P35225 25-146): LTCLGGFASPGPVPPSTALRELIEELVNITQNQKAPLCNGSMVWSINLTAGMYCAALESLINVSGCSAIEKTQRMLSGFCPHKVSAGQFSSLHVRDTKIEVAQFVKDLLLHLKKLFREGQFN
Chain of IL-4 (P05112 25-153): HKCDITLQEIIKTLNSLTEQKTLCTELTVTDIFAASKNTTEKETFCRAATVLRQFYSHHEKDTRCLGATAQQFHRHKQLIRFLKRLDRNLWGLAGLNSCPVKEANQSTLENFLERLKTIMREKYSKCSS

For the substance IL-4 (from UniProt P05112), in the data set with IL-13Rα1 (Homo sapiens) [1], the Kd (as a rule, the concentration at which binding is half-saturated) was > 1000 nM. IL-13: the Kd with IL-13Rα1 (Homo sapiens) [2] is 30 nM.
